# Several values for one entry are separate records, joined by “and”; a condition that tells them apart may be missing. Equal entries are not always repeated. Square brackets hold non-standard residues; d marks the D form. Peptide text beside a SMILES is read from it. * marks the point of attachment. EDDnp = O=[N+]([O-])c1ccc(NCCN*)c([N+](=O)[O-])c1; 2Abz = Nc1ccccc1C(=O)O
# T1: secPHEX (Homo sapiens, UniProt P78562)
# T1 construct: pure soluble form of PHEX (secPHEX); made in house
# T1 sequence (P78562 46-749 limits assumed): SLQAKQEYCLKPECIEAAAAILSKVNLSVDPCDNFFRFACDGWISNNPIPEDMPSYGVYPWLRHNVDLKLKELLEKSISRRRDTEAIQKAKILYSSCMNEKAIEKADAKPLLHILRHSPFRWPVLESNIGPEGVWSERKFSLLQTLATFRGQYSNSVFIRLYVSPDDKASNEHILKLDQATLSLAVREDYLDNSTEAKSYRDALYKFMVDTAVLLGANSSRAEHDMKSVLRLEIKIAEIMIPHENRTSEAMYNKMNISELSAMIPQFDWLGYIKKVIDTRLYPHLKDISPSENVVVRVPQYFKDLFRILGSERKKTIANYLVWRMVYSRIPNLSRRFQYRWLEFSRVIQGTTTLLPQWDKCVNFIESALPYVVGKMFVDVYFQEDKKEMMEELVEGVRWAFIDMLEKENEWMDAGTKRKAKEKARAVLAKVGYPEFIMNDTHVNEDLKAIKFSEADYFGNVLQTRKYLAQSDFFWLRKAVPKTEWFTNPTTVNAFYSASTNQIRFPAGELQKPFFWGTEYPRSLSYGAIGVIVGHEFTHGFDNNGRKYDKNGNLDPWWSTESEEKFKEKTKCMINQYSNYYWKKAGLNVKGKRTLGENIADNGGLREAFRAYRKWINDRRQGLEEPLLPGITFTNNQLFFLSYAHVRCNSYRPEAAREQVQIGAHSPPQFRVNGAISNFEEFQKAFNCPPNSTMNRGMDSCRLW
# T2: Abz-L94-MMDFRGQ-EDDnp
# T2 chain: LMMDFRGQ
# T3: Abz-I232-PSDFEGQ-EDDnp
# T3 chain: IPSDFEGQ
# T4: Abz-R76-SEDAGFQ-EDDnp
# T4 chain: RSEDAGFQ
# T5: Abz-R506-RDDSSEQ-EDDnp
# T5 chain: RRDDSSEQ
# T6: Abz-GFSDYQ-EDDnp
# T6 chain: GFSDYQ
# T7: Abz-S513-SDSGSQ-EDDnp
# T7 chain: SSDSGSQ
# T8: Abz-R175-RHTRSAEDDSERQ-EDDnp
# T8 chain: RRHTRSAEDDSERQ
# T9: Abz-GFSDYK(Dnp)-OH
# T9 chain: GFSDYK
# T10: Abz-N122-GYDVYHQ-EDDnp
# T10 chain: NGYDVYHQ
# T11: Abz-N449-EMDSFNQ-EDDnp
# T11 chain: NEMDSFNQ
# T12: Abz-D125-HLSDTSTQ-EDDnp
# T12 chain: DHLSDTSTQ
# T13: Abz-T294-HLDTKKQ-EDDnp
# T13 chain: THLDTKKQ
# T14: Abz-G337-SNDIMGQ-EDDnp
# T14 chain: GSNDIMGQ
# T15: Abz-GP197-QRDSQAQ-EDDnp
# T15 chain: GPQRDSQAQ
# T16: Abz-DRRL-EDDnp
# T16 chain: DRRL
# T17: Abz-S212-AEDNSPQ-EDDnp
# T17 chain: SAEDNSPQ
# T18: Abz-R175-RHTQSAEDDSERQ-EDDnp
# T18 chain: RRHTQSAEDDSERQ
# T19: Abz-GFSEYK(Dnp)-OH
# T19 chain: GFSEYK
# T20: Abz-G386-SSDAAEQ-EDDnp
# T20 chain: GSSDAAEQ
# T21: Abz-GFSEYK(Dnp)-NH2
# T21 chain: GFSEYK
# T22: Abz-A110-WLDSGVQ-EDDnp
# T22 chain: AWLDSGVQ
# T23: Abz-R441-GLDNEIQ-EDDnp
# T23 chain: RGLDNEIQ
# T24: Abz-L134-ELDSRQ-EDDnp
# T24 chain: LELDSRQ
# T25: Abz-GFSDYK(Dnp)-NH2
# T25 chain: GFSDYK
# B1: human recombinant secPHEX (pure soluble form of PHEX) (protein)
# chain: SLQAKQEYCLKPECIEAAAAILSKVNLSVDPCDNFFRFACDGWISNNPIPEDMPSYGVYPWLRHNVDLKLKELLEKSISRRRDTEAIQKAKILYSSCMNEKAIEKADAKPLLHILRHSPFRWPVLESNIGPEGVWSERKFSLLQTLATFRGQYSNSVFIRLYVSPDDKASNEHILKLDQATLSLAVREDYLDNSTEAKSYRDALYKFMVDTAVLLGANSSRAEHDMKSVLRLEIKIAEIMIPHENRTSEAMYNKMNISELSAMIPQFDWLGYIKKVIDTRLYPHLKDISPSENVVVRVPQYFKDLFRILGSERKKTIANYLVWRMVYSRIPNLSRRFQYRWLEFSRVIQGTTTLLPQWDKCVNFIESALPYVVGKMFVDVYFQEDKKEMMEELVEGVRWAFIDMLEKENEWMDAGTKRKAKEKARAVLAKVGYPEFIMNDTHVNEDLKAIKFSEADYFGNVLQTRKYLAQSDFFWLRKAVPKTEWFTNPTTVNAFYSASTNQIRFPAGELQKPFFWGTEYPRSLSYGAIGVIVGHEFTHGFDNNGRKYDKNGNLDPWWSTESEEKFKEKTKCMINQYSNYYWKKAGLNVKGKRTLGENIADNGGLREAFRAYRKWINDRRQGLEEPLLPGITFTNNQLFFLSYAHVRCNSYRPEAAREQVQIGAHSPPQFRVNGAISNFEEFQKAFNCPPNSTMNRGMDSCRLW
# Columns and labels:
# secPHEX = target: T1, secPHEX; experiment: secPHEX activity with NEP-specific substrate and inhibitor; assay type: biochemical; details: 10 μM substrate, 30 minutes
# Method: (§1) FIG. 4 graphically illustrates the activity of PHEX in the presence of NEP-specific substrate and inhibitor. NEP, secPHEX and membrane-bound PHEX (mPHEX) activities were measured after 30 minutes of incubation in presence of either 10 μM Abz-DRRL-EDDnp (SEQ ID NO:8) (A) or 10 μM Abz-GFSDYK(Dnp)-OH (SEQ ID NO:3) (B). Fluorescence detection (AFU) at γem=420 nm and γex=320 nm was determined as described under the heading “Experimental Procedures” below. When present, thiorphan, a NEP-specific inhibitor, was at a concentration of 10^−6 M. Data are a compilation of three different experiments;
# (§2) The activities of membrane-bound PHEX and secPHEX were also compared with the NEP-specific substrate Abz-DRRL-EDDnp (SEQ ID NO:8) (46).
# [1] = target: T26, membrane-bound PHEX (mPHEX) (Homo sapiens, UniProt P78562); experiment: Membrane-bound PHEX activity with NEP-specific substrate and inhibitor; assay type: biochemical; details: 10 μM substrate, 30 minutes
# T26 construct: expressed in transfected cells; host or cells: LLC-PK1 (porcine kidney cells)
# T26 sequence (P78562 whole entry): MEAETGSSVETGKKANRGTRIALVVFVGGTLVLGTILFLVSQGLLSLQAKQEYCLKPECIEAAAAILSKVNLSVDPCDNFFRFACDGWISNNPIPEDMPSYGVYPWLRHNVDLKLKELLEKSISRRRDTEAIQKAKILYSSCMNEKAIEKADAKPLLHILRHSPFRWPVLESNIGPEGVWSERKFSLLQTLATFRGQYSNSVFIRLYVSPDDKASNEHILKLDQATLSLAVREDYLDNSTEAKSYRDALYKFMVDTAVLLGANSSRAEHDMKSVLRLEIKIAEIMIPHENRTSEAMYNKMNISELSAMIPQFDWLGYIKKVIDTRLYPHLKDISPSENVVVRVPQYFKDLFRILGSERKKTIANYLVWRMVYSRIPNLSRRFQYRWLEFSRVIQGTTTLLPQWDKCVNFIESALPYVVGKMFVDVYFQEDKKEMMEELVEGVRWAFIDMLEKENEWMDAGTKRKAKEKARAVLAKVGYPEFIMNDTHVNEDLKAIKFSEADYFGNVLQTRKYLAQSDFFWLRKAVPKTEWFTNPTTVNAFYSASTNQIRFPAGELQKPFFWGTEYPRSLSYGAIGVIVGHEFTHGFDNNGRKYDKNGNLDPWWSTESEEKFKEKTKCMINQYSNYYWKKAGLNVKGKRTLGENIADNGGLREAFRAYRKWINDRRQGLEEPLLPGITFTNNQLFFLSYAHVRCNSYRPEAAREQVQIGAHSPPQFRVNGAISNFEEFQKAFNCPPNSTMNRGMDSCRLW
# Method: as §1, §2
# Abz-L94-MMDFRGQ-EDDnp = target: T2, Abz-L94-MMDFRGQ-EDDnp
# Abz-I232-PSDFEGQ-EDDnp = target: T3, Abz-I232-PSDFEGQ-EDDnp
# Abz-R76-SEDAGFQ-EDDnp = target: T4, Abz-R76-SEDAGFQ-EDDnp
# Abz-R506-RDDSSEQ-EDDnp = target: T5, Abz-R506-RDDSSEQ-EDDnp
# Abz-GFSDYQ-EDDnp = target: T6, Abz-GFSDYQ-EDDnp
# Abz-S513-SDSGSQ-EDDnp = target: T7, Abz-S513-SDSGSQ-EDDnp
# [2] = target: T8, Abz-R175-RHTRSAEDDSERQ-EDDnp
# Abz-GFSDYK(Dnp)-OH = target: T9, Abz-GFSDYK(Dnp)-OH
# Abz-N122-GYDVYHQ-EDDnp = target: T10, Abz-N122-GYDVYHQ-EDDnp
# Abz-N449-EMDSFNQ-EDDnp = target: T11, Abz-N449-EMDSFNQ-EDDnp
# Abz-D125-HLSDTSTQ-EDDnp = target: T12, Abz-D125-HLSDTSTQ-EDDnp
# Abz-T294-HLDTKKQ-EDDnp = target: T13, Abz-T294-HLDTKKQ-EDDnp
# Abz-G337-SNDIMGQ-EDDnp = target: T14, Abz-G337-SNDIMGQ-EDDnp
# Abz-GP197-QRDSQAQ-EDDnp = target: T15, Abz-GP197-QRDSQAQ-EDDnp
# Abz-DRRL-EDDnp = target: T16, Abz-DRRL-EDDnp
# Abz-S212-AEDNSPQ-EDDnp = target: T17, Abz-S212-AEDNSPQ-EDDnp
# [3] = target: T18, Abz-R175-RHTQSAEDDSERQ-EDDnp
# Abz-GFSEYK(Dnp)-OH = target: T19, Abz-GFSEYK(Dnp)-OH
# Abz-G386-SSDAAEQ-EDDnp = target: T20, Abz-G386-SSDAAEQ-EDDnp
# Abz-GFSEYK(Dnp)-NH2 = target: T21, Abz-GFSEYK(Dnp)-NH2
# Abz-A110-WLDSGVQ-EDDnp = target: T22, Abz-A110-WLDSGVQ-EDDnp
# Abz-R441-GLDNEIQ-EDDnp = target: T23, Abz-R441-GLDNEIQ-EDDnp
# Abz-L134-ELDSRQ-EDDnp = target: T24, Abz-L134-ELDSRQ-EDDnp
# Abz-GFSDYK(Dnp)-NH2 = target: T25, Abz-GFSDYK(Dnp)-NH2
molecule,measurement,setting,value
CC(C)C[C@H](NC(=O)[C@H](CCCNC(=N)N)NC(=O)[C@H](CCCNC(=N)N)NC(=O)[C@H](CC(=O)O)NC(=O)c1ccccc1N)C(=O)NCCNc1ccc([N+](=O)[O-])cc1[N+](=O)[O-] [Abz-DRRL-EDDnp] (H-[2Abz]DRRL-EDDnp),hydrolysis of NEP-specific substrate,secPHEX,Neither enzyme hydrolyzed this substrate
same,hydrolysis of NEP-specific substrate,[1],Neither enzyme hydrolyzed this substrate
B1,Km,Abz-L94-MMDFRGQ-EDDnp,17 µM
same,kcat,Abz-L94-MMDFRGQ-EDDnp,0.8 s⁻¹
same,kcat/Km,Abz-L94-MMDFRGQ-EDDnp,45 mM⁻¹ s⁻¹
same,kcat/Km (pseudo-first order conditions),Abz-I232-PSDFEGQ-EDDnp,80 mM⁻¹ s⁻¹
same,Km,Abz-R76-SEDAGFQ-EDDnp,4.1 µM
same,kcat,Abz-R76-SEDAGFQ-EDDnp,0.06 s⁻¹
same,kcat/Km,Abz-R76-SEDAGFQ-EDDnp,14.6 mM⁻¹ s⁻¹
same,Km,Abz-R506-RDDSSEQ-EDDnp,5.3 µM
same,kcat,Abz-R506-RDDSSEQ-EDDnp,0.5 s⁻¹
same,kcat/Km,Abz-R506-RDDSSEQ-EDDnp,94.3 mM⁻¹ s⁻¹
same,Km,Abz-GFSDYQ-EDDnp,13.3 µM
same,kcat,Abz-GFSDYQ-EDDnp,0.6 s⁻¹
same,kcat/Km,Abz-GFSDYQ-EDDnp,45.1 mM⁻¹ s⁻¹
same,Km,Abz-S513-SDSGSQ-EDDnp,31.6 µM
same,kcat,Abz-S513-SDSGSQ-EDDnp,0.2 s⁻¹
same,kcat/Km,Abz-S513-SDSGSQ-EDDnp,7.1 mM⁻¹ s⁻¹
same,Km,[2],3 µM
same,kcat,[2],0.2 s⁻¹
same,kcat/Km,[2],66.7 mM⁻¹ s⁻¹
same,Km,Abz-GFSDYK(Dnp)-OH,"3 µM and 5×10^-6 M and 10×10^-6 M, for secPHEX and membrane-bound PHEX, respectively"
same,kcat,Abz-GFSDYK(Dnp)-OH,0.5 s⁻¹
same,kcat/Km,Abz-GFSDYK(Dnp)-OH,167 mM⁻¹ s⁻¹
same,substrate hydrolysis (fluorescence),Abz-GFSDYK(Dnp)-OH,degradation of the substrate was observed
same,Km,Abz-N122-GYDVYHQ-EDDnp,9 µM
same,kcat,Abz-N122-GYDVYHQ-EDDnp,0.01 s⁻¹
same,kcat/Km,Abz-N122-GYDVYHQ-EDDnp,1.1 mM⁻¹ s⁻¹
same,Km,Abz-N449-EMDSFNQ-EDDnp,38 µM
same,kcat,Abz-N449-EMDSFNQ-EDDnp,0.3 s⁻¹
same,kcat/Km,Abz-N449-EMDSFNQ-EDDnp,7.9 mM⁻¹ s⁻¹
same,Km,Abz-D125-HLSDTSTQ-EDDnp,1.3 µM
same,kcat,Abz-D125-HLSDTSTQ-EDDnp,0.1 s⁻¹
same,kcat/Km,Abz-D125-HLSDTSTQ-EDDnp,77 mM⁻¹ s⁻¹
same,Km,Abz-T294-HLDTKKQ-EDDnp,15 µM
same,kcat,Abz-T294-HLDTKKQ-EDDnp,0.02 s⁻¹
same,kcat/Km,Abz-T294-HLDTKKQ-EDDnp,1.3 mM⁻¹ s⁻¹
same,Km,Abz-G337-SNDIMGQ-EDDnp,13 µM
same,kcat,Abz-G337-SNDIMGQ-EDDnp,0.01 s⁻¹
same,kcat/Km,Abz-G337-SNDIMGQ-EDDnp,0.8 mM⁻¹ s⁻¹
same,Km,Abz-GP197-QRDSQAQ-EDDnp,47 µM
same,kcat,Abz-GP197-QRDSQAQ-EDDnp,0.2 s⁻¹
same,kcat/Km,Abz-GP197-QRDSQAQ-EDDnp,4.3 mM⁻¹ s⁻¹
same,substrate hydrolysis (fluorescence),Abz-DRRL-EDDnp,Neither enzyme hydrolyzed this substrate
same,Km,Abz-S212-AEDNSPQ-EDDnp,22 µM
same,kcat,Abz-S212-AEDNSPQ-EDDnp,0.3 s⁻¹
same,kcat/Km,Abz-S212-AEDNSPQ-EDDnp,13.6 mM⁻¹ s⁻¹
same,Km,[3],1.7 µM
same,kcat,[3],0.15 s⁻¹
same,kcat/Km,[3],88.2 mM⁻¹ s⁻¹
same,kcat/Km (pseudo first-order conditions),Abz-GFSEYK(Dnp)-OH,9 mM⁻¹ s⁻¹
same,Km,Abz-G386-SSDAAEQ-EDDnp,2.4 µM
same,kcat,Abz-G386-SSDAAEQ-EDDnp,0.3 s⁻¹
same,kcat/Km,Abz-G386-SSDAAEQ-EDDnp,125 mM⁻¹ s⁻¹
same,hydrolysis by PHEX,Abz-GFSEYK(Dnp)-NH2,Resistant
same,Km,Abz-A110-WLDSGVQ-EDDnp,1.5 µM
same,kcat,Abz-A110-WLDSGVQ-EDDnp,0.04 s⁻¹
same,kcat/Km,Abz-A110-WLDSGVQ-EDDnp,26.7 mM⁻¹ s⁻¹
same,Km,Abz-R441-GLDNEIQ-EDDnp,7 µM
same,kcat,Abz-R441-GLDNEIQ-EDDnp,0.03 s⁻¹
same,kcat/Km,Abz-R441-GLDNEIQ-EDDnp,4.3 mM⁻¹ s⁻¹
same,Km,Abz-L134-ELDSRQ-EDDnp,0.9 µM
same,kcat,Abz-L134-ELDSRQ-EDDnp,0.05 s⁻¹
same,kcat/Km,Abz-L134-ELDSRQ-EDDnp,55.5 mM⁻¹ s⁻¹
same,Km,Abz-GFSDYK(Dnp)-NH2,53.2 µM
same,fold decrease in catalytic efficiency against Abz-GFSDYK(Dnp)-OH,Abz-GFSDYK(Dnp)-NH2,a 6-fold decrease in catalytic efficiency due to its low affinity for the enzyme
same,kcat,Abz-GFSDYK(Dnp)-NH2,1.3 s⁻¹
same,kcat/Km,Abz-GFSDYK(Dnp)-NH2,24.4 mM⁻¹ s⁻¹
